Here are results for one molecule from patent US20240383984A1 (Genentech, published 2024).

A word on the Kd: it is the concentration at which binding is half-saturated. A higher Kd goes with weaker binding.

For assay [1], the target named is T1, cynomolgus FcRH5 protein fragment (soluble) (cynomolgus monkey).
T1 construct: whole entry named; also called Cyno FcRH5 (BIACORE analyte)
T1 chain: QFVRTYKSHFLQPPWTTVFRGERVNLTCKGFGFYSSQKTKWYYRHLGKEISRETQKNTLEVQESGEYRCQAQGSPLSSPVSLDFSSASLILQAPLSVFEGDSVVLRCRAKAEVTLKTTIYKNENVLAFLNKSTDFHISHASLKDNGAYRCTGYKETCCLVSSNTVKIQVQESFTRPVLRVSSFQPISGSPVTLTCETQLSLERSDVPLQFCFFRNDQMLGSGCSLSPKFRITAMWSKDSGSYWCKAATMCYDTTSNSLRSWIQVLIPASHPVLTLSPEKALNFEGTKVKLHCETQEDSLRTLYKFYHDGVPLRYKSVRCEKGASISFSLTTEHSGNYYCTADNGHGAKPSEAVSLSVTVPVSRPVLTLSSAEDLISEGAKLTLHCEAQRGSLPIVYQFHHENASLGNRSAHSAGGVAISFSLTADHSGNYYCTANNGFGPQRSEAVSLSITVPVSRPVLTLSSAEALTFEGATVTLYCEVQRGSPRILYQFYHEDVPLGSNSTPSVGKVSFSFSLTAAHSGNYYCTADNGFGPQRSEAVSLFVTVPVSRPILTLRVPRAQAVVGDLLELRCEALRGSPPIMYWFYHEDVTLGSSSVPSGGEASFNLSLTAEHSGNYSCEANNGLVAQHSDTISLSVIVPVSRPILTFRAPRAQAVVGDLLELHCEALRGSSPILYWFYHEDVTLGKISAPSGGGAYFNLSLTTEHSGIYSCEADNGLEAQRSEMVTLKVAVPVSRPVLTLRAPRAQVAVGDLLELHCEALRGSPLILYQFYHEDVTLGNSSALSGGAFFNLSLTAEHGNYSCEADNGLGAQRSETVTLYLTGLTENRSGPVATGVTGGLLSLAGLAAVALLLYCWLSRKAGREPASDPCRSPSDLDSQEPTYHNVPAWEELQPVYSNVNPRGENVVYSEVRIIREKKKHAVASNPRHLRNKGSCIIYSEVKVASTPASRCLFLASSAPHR
The assay is described as follows: BIACORE. (In general: Surface plasmon resonance follows binding to a sensor surface in real time, without labels.)

Assay [2] has as its target T2, human FcRH5 (full-length, on cells) (human, UniProt Q96RD9 16-977).
T2 sequence: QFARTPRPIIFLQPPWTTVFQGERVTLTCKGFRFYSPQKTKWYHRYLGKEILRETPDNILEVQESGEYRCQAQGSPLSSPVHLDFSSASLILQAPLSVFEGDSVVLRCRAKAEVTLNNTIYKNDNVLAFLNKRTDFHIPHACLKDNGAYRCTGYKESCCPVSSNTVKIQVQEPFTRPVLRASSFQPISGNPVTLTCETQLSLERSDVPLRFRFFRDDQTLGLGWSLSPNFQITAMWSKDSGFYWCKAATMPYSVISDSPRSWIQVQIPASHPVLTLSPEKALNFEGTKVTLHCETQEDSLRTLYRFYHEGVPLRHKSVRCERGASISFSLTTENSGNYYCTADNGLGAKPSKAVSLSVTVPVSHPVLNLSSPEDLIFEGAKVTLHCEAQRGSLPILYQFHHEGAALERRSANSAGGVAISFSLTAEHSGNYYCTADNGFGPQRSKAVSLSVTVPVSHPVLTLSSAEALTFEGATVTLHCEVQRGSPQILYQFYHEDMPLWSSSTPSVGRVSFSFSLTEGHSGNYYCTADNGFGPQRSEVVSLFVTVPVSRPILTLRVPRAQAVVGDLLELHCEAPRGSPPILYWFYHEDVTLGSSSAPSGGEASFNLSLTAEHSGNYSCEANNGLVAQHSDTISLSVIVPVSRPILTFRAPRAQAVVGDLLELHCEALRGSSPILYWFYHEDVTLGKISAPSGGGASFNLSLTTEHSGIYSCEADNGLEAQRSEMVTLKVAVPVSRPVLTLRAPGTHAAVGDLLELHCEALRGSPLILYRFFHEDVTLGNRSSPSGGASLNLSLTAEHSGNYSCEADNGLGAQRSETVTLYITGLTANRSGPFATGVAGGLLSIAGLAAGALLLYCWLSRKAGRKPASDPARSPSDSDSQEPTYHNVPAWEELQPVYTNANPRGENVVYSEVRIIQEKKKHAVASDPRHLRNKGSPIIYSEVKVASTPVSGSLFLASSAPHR
Put plainly: cell-based or functional assay.

The target of assay [3] is T3, human FcRH2 (full-length, on SVT2 cells) (human, UniProt Q96LA5 20-508).
T3 construct: whole, on cells; also called SVT2-FcRH2
T3 sequence (looked up): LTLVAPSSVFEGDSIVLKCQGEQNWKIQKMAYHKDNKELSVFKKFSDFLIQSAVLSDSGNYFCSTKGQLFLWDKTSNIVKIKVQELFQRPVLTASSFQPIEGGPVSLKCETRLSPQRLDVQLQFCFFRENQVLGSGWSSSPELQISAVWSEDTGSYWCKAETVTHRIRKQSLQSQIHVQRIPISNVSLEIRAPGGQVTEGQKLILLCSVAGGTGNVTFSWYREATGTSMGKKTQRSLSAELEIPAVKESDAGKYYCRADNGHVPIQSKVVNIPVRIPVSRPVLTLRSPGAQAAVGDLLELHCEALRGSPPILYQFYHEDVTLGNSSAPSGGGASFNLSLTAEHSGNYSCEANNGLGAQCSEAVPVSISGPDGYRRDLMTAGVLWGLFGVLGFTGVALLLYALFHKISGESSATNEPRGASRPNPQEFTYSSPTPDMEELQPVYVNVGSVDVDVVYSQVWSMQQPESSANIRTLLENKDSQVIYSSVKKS
Put plainly: flow cytometry on SVT2-FcRH2 cells, PE-labelled secondary. The procedure:
Human FcRH5, cyno FcRH5, human FcRH1, FcRH2, FcRH3, and FcRH4 transfected mouse SVT2 cells were used to test binding and cross-reactivity of FcRH5 TDBs. The method was carried out as follows. Cultured SVT2 cells were lifted using non-enzyme cell dissociation buffer (Sigma, #C5914). 1×10⁵ cells were suspended in 100 μL and incubated with FcRH5 TDBs at 3 μg/ml. […] Cells were washed twice with FACS buffer before flow cytometry analysis was carried out on a FACSCalibur.
Background: Flow cytometry measures light scatter and fluorescence of single cells or particles in a stream.

B1: 1G7.v85/38E4.v1 TDB (bispecific antibody, V domains shown)
VH 1: EVQLVESGPGLVKPSETLSLTCTVSGFSLTRFGVHWVRQPPGKGLEWLGVIWRGGSTDYNAAFVSRLTISKDNSKNQVSLKLSSVTAADTAVYYCSNHYYGSSDYALDNWGQGTLVTVSS
VL 1: DIQMTQSPSSLSASVGDRVTITCKASQDVRNLVVWFQQKPGKAPKLLIYSGSYRYSGVPSRFSGSGSGTDFTLTISSLQPEDFATYYCQQHYSPPYTFGQGTKVEIK
VH 2: EVQLVQSGAEVKKPGASVKVSCKASGFTFTSYYIHWVRQAPGQGLEWIGWIYPENDNTKYNEKFKDRVTITADTSTSTAYLELSSLRSEDTAVYYCARDGYSRYYFDYWGQGTLVTVSS
VL 2: DIVMTQSPDSLAVSLGERATINCKSSQSLLNSRTRKNYLAWYQQKPGQSPKLLIYWTSTRKSGVPDRFSGSGSGTDFTLTISSLQAEDVAVYYCKQSFILRTFGQGTKVEIK
notes: knob-into-hole TDB; also called 1G7.v85 TDB; 1G7.v85 (TDB format)
As to B1, in assay [1], the Kd is 7.8 nM. Also, in assay [2], the “killing of 293-FcRH5-PD-L1 cells by primed CD8+ cells, TDB alone, EC50” value was 0.63 ng/mL; the “killing of 293-FcRH5-PD-L1 cells, with anti-PD-1 antibody (pembrolizumab), EC50” value turned out to be 0.4 ng/mL; the “killing of 293-FcRH5-PD-L1 cells, with anti-PD-L1 antibody, EC50” value stood at 0.4 ng/mL; the “killing of MOLP-2 cells, EC50” value worked out at 0.058 nM. Besides, in assay [2], the “killing of SVT2-FcRH5 cells in DMSO, IC50” value came to 0.006 nM; the “killing of SVT2-FcRH5 cells in buffer, IC50” value was found to be 0.007 nM; the “killing of SVT2-FcRH5 cells with 0.1 µM Dex, IC50” value turned out to be 0.016 nM; the “killing of plasma cells (PCs), median EC50” value worked out at 25 ng/mL. In assay [3], the binding result is “no binding”.
